# Measured values taken from CN112079917A (CANVEST WUHAN BIOTECHNOLOGY CO LTD, dated 2020).
# B1: H7N9病毒特异性识别抗体P51H08 (IgG形式) (antibody, V domains shown)
# VH: QVQLVQSGGGLVQPGGSMRLSCAASGFTFSSYAMSWVRQAPGKGLEWVSGISGSGGSTYYADSVKGRFTISRDNSKNTLHLPMNSLRADDTAVYYCAKDLNWWPDYWGQGTLVTVSS
# VL: SYVLTQPPSVSVAPGKTASMTCGGNNIGSKRVHWYQQKPGQAPVLVVYNDNERPSAIPERFSGSNSGNTATLTVSRVEAGDEADYYCLVWDSSSLHRVFGGGTKLTVLG
# Key:
# [1] = molecular target: SH02 HA毒株 (A/Shanghai/2/2013 H7N9) HA蛋白 (influenza A virus A/Shanghai/2/2013 H7N9); assay: ELISA, IgG form on HA protein
# [2] = molecular target: 17SF HA毒株 (A/Guangdong/17SF003/2016) HA蛋白 (influenza A virus A/Guangdong/17SF003/2016 (H7N9)); assay: ELISA, IgG form on HA protein
# BSA = BSA (UniProt P02769 25-607); assay: ELISA, IgG form
# Chain of BSA (P02769 25-607 limits assumed): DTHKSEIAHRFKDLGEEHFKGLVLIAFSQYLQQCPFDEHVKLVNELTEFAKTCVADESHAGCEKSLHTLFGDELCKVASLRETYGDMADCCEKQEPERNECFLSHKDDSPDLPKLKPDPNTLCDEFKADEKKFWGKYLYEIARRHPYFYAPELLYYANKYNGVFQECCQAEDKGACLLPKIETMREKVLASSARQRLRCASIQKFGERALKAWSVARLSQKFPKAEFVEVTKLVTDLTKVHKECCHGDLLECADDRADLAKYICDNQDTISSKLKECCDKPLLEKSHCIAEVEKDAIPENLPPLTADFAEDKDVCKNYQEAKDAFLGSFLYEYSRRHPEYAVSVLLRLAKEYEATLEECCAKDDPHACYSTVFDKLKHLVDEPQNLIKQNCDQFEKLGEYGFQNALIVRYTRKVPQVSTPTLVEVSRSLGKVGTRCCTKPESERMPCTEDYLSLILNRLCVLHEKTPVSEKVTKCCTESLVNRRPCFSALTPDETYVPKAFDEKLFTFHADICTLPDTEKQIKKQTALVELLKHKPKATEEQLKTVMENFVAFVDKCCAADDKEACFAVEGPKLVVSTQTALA
binder,measurement,setting,value
B1,EC50,[1],1.65 nM
same,EC50,[2],3.56 nM
same,binding result,BSA,no binding
